Results on six substances are retold here after patent US20250051464A1.

Assay [1] concerns the target Human EphA2 (ephrin receptor A2) (human) (UniProt P29317). In words: IHC/IF score on frozen human tumor tissue, UCEC-endometriod.
For assay [2] the target is unchanged. Briefly: IHC/IF score on frozen human tumor tissue, HNC.
Assay [3] shares this target. In words: IHC/IF score on frozen human tumor tissue, RCC-papillary.
Assay [4] shares this target. Briefly: IHC/IF score on frozen human tumor tissue, Her2+ BRC.
The target is the same in assay [5]. In words: IHC/IF score on frozen human tumor tissue, PANC.
Assay [6] has the same target. In words: IHC/IF score on frozen human tumor tissue, NSCLC-SQ.
For assay [7] the target is unchanged. In words: IHC/IF score on frozen human tumor tissue, RCC-clear cell.
For assay [8] the target is unchanged. Briefly: IHC/IF score on frozen human tumor tissue, TNBC.
The target is the same in assay [9]. In words: IHC/IF score on frozen human tumor tissue, ANC.
Assay [10] has the same target. In words: IHC/IF score on frozen human tumor tissue, NSCLC-Adeno.
Assay [11] shares this target. In words: IHC/IF score on frozen human tumor tissue, OVA.
Assay [12] shares this target. In words: IHC/IF score on frozen human tumor tissue, GAC.
Assay [13] has the same target. In words: IHC/IF score on frozen human tumor tissue, UCEC-papillary.
Assay [14] shares this target. Briefly: IHC/IF score on frozen human tumor tissue, ER+ BRC.
Assay [15] shares this target. In words: IHC/IF score on frozen human tumor tissue, ESC.
The target is the same in assay [16]. Briefly: IHC/IF score on frozen human tumor tissue, MELA.
For assay [17] the target is unchanged. Briefly: IHC/IF score on frozen human tumor tissue, STS.
Assay [18] shares this target. In words: IHC/IF score on frozen human tumor tissue, CRC.
The target is the same in assay [19]. Briefly: IHC/IF score on frozen human tumor tissue, URO.
Assay [20] shares this target. Briefly: IHC/IF score on frozen human tumor tissue, UCEC-clear cell.
For assay [21] the target is unchanged. Briefly: IHC/IF score on frozen human tumor tissue, PROC.

Human EphA2 (ephrin receptor A2) (human), sequence (P29317 24-976 limits assumed): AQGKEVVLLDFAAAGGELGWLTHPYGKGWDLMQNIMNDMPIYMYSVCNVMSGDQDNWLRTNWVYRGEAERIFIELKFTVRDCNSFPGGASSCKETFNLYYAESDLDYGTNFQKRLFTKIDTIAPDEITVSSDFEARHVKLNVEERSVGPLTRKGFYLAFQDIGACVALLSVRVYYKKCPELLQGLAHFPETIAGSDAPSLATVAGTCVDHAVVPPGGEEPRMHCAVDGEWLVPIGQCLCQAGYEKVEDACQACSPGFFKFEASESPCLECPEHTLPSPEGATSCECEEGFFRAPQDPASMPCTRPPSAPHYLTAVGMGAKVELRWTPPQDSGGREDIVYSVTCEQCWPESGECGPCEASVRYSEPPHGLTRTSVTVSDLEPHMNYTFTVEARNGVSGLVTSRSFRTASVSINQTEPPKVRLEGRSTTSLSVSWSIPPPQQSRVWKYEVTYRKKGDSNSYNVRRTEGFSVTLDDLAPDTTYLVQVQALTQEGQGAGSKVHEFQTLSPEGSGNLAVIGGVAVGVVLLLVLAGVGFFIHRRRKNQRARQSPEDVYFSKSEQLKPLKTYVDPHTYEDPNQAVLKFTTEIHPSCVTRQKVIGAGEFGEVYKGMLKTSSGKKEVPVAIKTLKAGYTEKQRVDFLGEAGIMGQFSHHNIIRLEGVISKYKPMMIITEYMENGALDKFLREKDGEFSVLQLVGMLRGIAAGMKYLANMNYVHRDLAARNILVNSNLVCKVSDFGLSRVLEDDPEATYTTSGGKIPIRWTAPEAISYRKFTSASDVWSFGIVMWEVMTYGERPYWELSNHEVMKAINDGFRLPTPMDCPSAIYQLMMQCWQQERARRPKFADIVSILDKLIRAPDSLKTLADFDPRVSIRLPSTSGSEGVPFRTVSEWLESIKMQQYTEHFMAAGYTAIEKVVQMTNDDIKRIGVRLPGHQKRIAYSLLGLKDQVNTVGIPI

In the case of 6997S (around Arg907) (antibody), the IHC score in assay [1], in [2], in [3], in assay [4], in assay [5] and in assay [6] was 1 throughout. In addition, the IHC score in assay [7] was 1; in [8], 1; in [9], 2; in assay [10], 1; in assay [11], 1; in assay [12] it was 1. The IHC score in [13] amounted to 2; in assay [14], 1; in assay [15], 2; in [16], 2; in [17] it was 1; in [18] it was 1. Also, the IHC score came to 1 in assay [19], 2 in assay [20] and 1 in assay [21].
As to LS-C100255-400 (AA 30-60) (antibody), the IHC score in assay [1], in assay [2], in assay [3], in assay [4], in assay [5] and in assay [6] was 1 throughout. Also, the IHC score in [7], in assay [8], in assay [9], in assay [10], in assay [11] and in assay [12] was 1 each time. Besides, the IHC score is 2 in [13]; 1 in assay [14]; 1 in assay [15]; 2 in assay [16]; 1 in assay [17]; 1 in [18]. The IHC score in assay [19] came out at 1; in assay [20], 2; in assay [21] it was 1.
With MAB3035 (Gln25-Asn534) (antibody), the IHC score in assay [1] was found to be 2; in [2], 2; in [3], 1; in assay [4], 1; in [5], 2; in assay [6], 2. For the same substance, the IHC score in [7] turned out to be 1; in [8], 1; in assay [9] it was 2; in [10] it was 2; in assay [11], 2; in assay [12], 1. Also, the IHC score in assay [13] worked out at 2; in [14] it was 1; in [15] it was 2; in assay [16], 3; in [17], 1; in assay [18], 1. For the same substance, the results for the IHC score in assay [19], in [20] and in assay [21] were 1, 2 and 1, respectively.
With LS-B1794-50 (AA 450-500) (antibody), the IHC score in assay [1] turned out to be 1; in assay [2], 1; in [3] it was 2; in assay [4], 1; in assay [5], 1; in [6], 1. Also, the IHC score was determined as 1 in assay [7]; 1 in assay [8]; 1 in assay [9]; 2 in [10]; 1 in assay [11]; 1 in assay [12]. For the same substance, the IHC score in assay [13] was determined as 2; in [14], 1; in [15] it was 1; in assay [16], 2; in [17], 1; in assay [18], 1. For the same substance, the IHC score in assay [19] came out at 1; in assay [20], 2; in assay [21] it was 1.
As for “LS-C36249-100 (extracellular) (antibody)”, the IHC score in assay [1] is 2; in assay [2], 2; in [3], 1; in assay [4], 2; in assay [5], 1; in [6], 2. Also, the IHC score in assay [7] came out at 1; in assay [8], 1; in [9], 2; in assay [10] it was 2; in assay [11] it was 2; in assay [12] it was 1. For the same substance, the IHC score in assay [13] came out at 3; in assay [14] it was 1; in assay [15] it was 2; in assay [16], 3; in [17] it was 2; in assay [18], 1. For the same substance, the IHC score in [19] amounted to 1; in [20], 2; in [21], 1.
In the case of Ab73254 (extracellular) (antibody), the IHC score in assay [1] came to 1; in [2] it was 1; in [3] it was 1; in assay [4], 1; in assay [5] it was 1; in assay [6], 2. Besides, the IHC score was 1 in assay [7]; 1 in assay [8]; 1 in [9]; 2 in assay [10]; 1 in assay [11]; 1 in assay [12]. The IHC score stood at 1 in assay [13]; 1 in [14]; 1 in assay [15]; 2 in assay [16]; 1 in assay [17]; 1 in assay [18]. In addition, the IHC score in assay [19] came out at 1; in assay [20] it was 2; in assay [21], 1.
